# Experimental data taken from US8962569B2, “Compositions comprising spp24 peptide fragments” (The Regeants of the University of California, priority 2010, dated 2015).
# T1: BMP-2 (Homo sapiens, UniProt P12643)
# T1 sequence (P12643 283-396): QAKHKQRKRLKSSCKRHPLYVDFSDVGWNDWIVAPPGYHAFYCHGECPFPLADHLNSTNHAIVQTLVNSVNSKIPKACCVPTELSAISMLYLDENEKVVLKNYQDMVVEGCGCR
# Experiments:
# BMP-2 [1] = molecular target: T1, BMP-2; conditions: cited from earlier work
# BMP-2 [2] = molecular target: T1, BMP-2; conditions: Behnam, 2005; cited from earlier work
# A549 cells [3] = assay: Histologic and histomorphometric analysis of A549 tumors (subcutaneous and tibiae); assay type: in vivo, SCID mice
# From the text: (§1) Forty, eight-week-old male SCID mice (weight 23.5 to 29.1 g, mean 27.1 g) were housed under pathogen-free conditions in accordance with the protocol approved by the Chancellor's Animal Research Committee (ARC) at the University of California, Los Angeles. There were four experimental groups in this study, and each group underwent implantation of cells in both a subcutaneous model and an intra-tibial injection. Group I animals received A549 cells alone as a control group. […] Group III received an A549 cells+spp24 (1000 μg). […] There were 10 animals in each group.
# Animals were killed at 8 weeks (or earlier if required by an excessive tumor size) and both the soft tissue tumor and the hind limb were harvested for histological analysis. Soft tissue tumors were fixed in 10% buffered formalin. The tibias were fixed in 10% buffered formalin followed by decalcification in a solution of 10% EDTA for 2 weeks at room temperature with gentle stirring. Longitudinal sections of the proximal tibia were prepared and stained with H&E. For histologic and histomorphometric analyses, all microscopic slides were scanned with a ScanScope GL (Aperio Technologies, Inc., Vista, Calif.) equipped with a 20× objective. The following parameters were considered in the qualitative analysis: amount of tumor cells between cortices from the proximal tibia; anterior and posterior cortical destruction and remodeling; new bone formation within the medullary canal; and anterior/posterior extension of bone formation outside the medullary canal. These histologic findings were graded with the following scale: 0 (none), 1 (mild), 2 (moderate), 3 (intense). Bone volume and tumor volume, expressed as a percentage of total tissue volume (% BV/TV and % TuV/TV, respectively) were quantified in whole-slide images using Spectrum software (Aperio Technologies, Inc. Vista, Calif.).
# [4] = Stability of IMAC-purified His6-spp24 on frozen storage (2D SDS-PAGE); assay type: physicochemical; conditions: stored frozen (−20° C., 3 months) in 8 M urea in the presence of protease inhibitors
# Protocol: The proteins in representative fractions containing His6-spp24 and its degradation products were separated by 2D SDS-PAGE by the method of O'Farrell (O'Farrell P. H., J. Biol. Chem., 250, 4007-4021 (1975)) (Nancy Kendrick, Ph.D., Kendrick Laboratories, Madison, Wis.) (Behnam, 2005, Behnam, 2006; Behnam, 2002; and Behnam and Murray, 2005). These fractions had been stored at −20° C. for 3 months in urea buffer plus protease inhibitors, resulting in the slow accumulation of degradation products similar to those previously reported (Urist, 1987) that are not abundant in freshly-prepared fractions. The gel was stained with Coomassie Brilliant Blue, and the three major spots of the appropriate molecular weight (<24 kDa) were selected, excised, eluted, reduced in 5% β-mercaptoethanol, alkylated, trypsin digested, and subjected to peptide mass fingerprint analysis by MALDI/ToF MS (Mary Ann Gawinowicz, Ph.D., Protein Chemistry Core Facility, Howard Hughes Medical Institute, Columbia University, New York, N.Y.) to verify their identities and structures (Behnam, 2005, Behnam, 2006, Behnam, 2002; and Behnam and Murray, 2005). Methionines were not oxidized. Peptides with a mass [M+H^+]>1000 Da were analyzed. The peptide fingerprint was compared to those in the SWISS-PRO and NCBI databanks (Behnam, 2005, Behnam, 2006; Behnam, 2002; and Behnam and Murray, 2005). […]
# [5] = Proteolysis of recombinant spp24 by MC3T3-E1 cell extracts (SDS-PAGE, anti-His6 Western blot); assay type: in vitro ADME, mouse; conditions: 37° C.; for time to essentially complete degradation of His6-spp24: presence of 4 mM calcium, MC3T3-E1 cell extracts
# Protocol: MC3T3-E1 mouse preosteoblastic cells were cultured to confluence, harvested by trypsinization, pelleted by centrifugation, and suspended in digestion buffer (100 mM HEPES-HCl, pH 7.5, 12.5 mM KCl, 6.25 mM (3-mercaptoethanol, and 0.2% Triton X-100) plus or minus 4 mM CaCl2 at a protein concentration of 2.4 mg/ml. Recombinant spp24 (residues 23 to 204) was exhaustively dialyzed vs. water, lyophilized, and resuspended at 1 mg/ml in digestion buffer (plus or minus 4 mM CaCl2). Equal volumes of cell extract and spp24 were combined, and incubated at 37° C. for 0 to 24 hours. At the intervals indicated, 4 μl aliquots equivalent to 2 μg spp24 were removed, subjected to SDS-PAGE, and Western blotted using antibody directed against the His6 tag as outlined in detail above.
# [6] = test system: A549 human non-small cell lung cancer cells; assay: A549 cell proliferation assay (Quick Cell Proliferation Assay); assay type: cell-based; conditions: 48 h
# Protocol: The human non-small cell lung cancer (NSCLC) cell line A549 was used in this study (ATCC, Manassas, Va., USA). A549 cells were maintained in DMEM with 10% FBS and antibiotics (Fisher scientific, Pittsburgh, Pa.) in a humidified incubator with 5% CO2 at 37° C. Cells were not used beyond 10 passages. Cells were plated in serum free medium at a density of 10,000 cells/well and allowed to attach for 24 h. […] Recombinant spp24 was prepared as described previously (Murray E J B, et al., Connect Tiss Res 2007; 48:1-8) and added in serum-free media to final concentrations of 10, 25, 50, 75 μg/ml. Cells were incubated for 48 h before cell proliferation was assessed using Quick Cell Proliferation Assay (BioVision, Mountain View, Calif., USA) according to manufacturer's recommendations. Results were reported as a percentage compared with untreated cells.
# A549 cells [7] = assay: Subcutaneous implantation of A549 cells and direct measurement of tumor size; assay type: in vivo, SCID mice; conditions: 8 weeks after co-injection with A549 cells; rhBMP-2 10 μg, spp24 1000 μg; cells alone 127.4±117.5; mean±SE per method
# From the text: as §1
# A549 cells [8] = assay: Intratibial implantation of A549 cells and radiographic analysis; assay type: in vivo, SCID mice; conditions: 8 weeks
# From the text: as §1
# A549 = conditions: Feeley, 2006; cited from earlier work
# [9] = tibiae, grade 0 (none) to 3 (intense), mean
molecule,measurement,setting,value
"BBP: synthetic cyclic 19 amino acid peptide of the TRH1 domain of bovine spp24, CRSTVRMSAEQVQNVWVRC (SEQ ID NO: 8) [reference compound]",effect on BMP-2-induced ectopic bone formation in vivo,"BMP-2 [1]; Behnam, 2005",enhances the rate and magnitude of BMP-2-induced ectopic bone formation in vivo
same,binding of BMP-2,BMP-2 [2],specifically binds BMP-2
"spp24: recombinant His6-tagged bovine secreted phosphoprotein-24 kDa, residues 24 to 203 (SEQ ID NO:1), expressed in E. coli (protein, N-terminal Met-His6 tag; Synthetic spp24) MHHHHHHFPVYDYDPASLKEALSASVAKVNSQSLSPYLFRAFRSSVKRVNALDEDSLTMDLEFRIQETTCRRESEADPATCDFQRGYHVPVAVCRSTVRMSAEQVQNVWVRCHWSSSSGSSSSEEMFFGDILGSSTSRNSYLLGLTPDRSRGEPLYEPSREMRRNFPLGNRRYSNPWPRARVNPGFE",% TuV/TV (tumor volume/total volume),"A549 cells [3]; longitudinal section of the proximal tibia at midline, mean",insufficient
same,tumor cells in histological specimens,"A549 cells [3]; subcutaneous and intratibial sites, 8 weeks",only a few scattered tumor cells
same,% BV/TV (bone volume/total volume),"A549 cells [3]; tibia section, mean",insufficient
same,Anterior cortex destruction (2),A549 cells [3]; [9],0
same,Extension of bone formation outside the medullary canal (5),A549 cells [3]; [9],0
same,New bone formation within the medullary canal (4),A549 cells [3]; [9],0
same,Posterior cortex destruction (3),A549 cells [3]; [9],0
same,Amount of tumor cells between cortices (1),"A549 cells [3]; tibiae, grade 0 (none), 1 (mild), 2 (moderate), 3 (intense), mean",0
same,susceptibility to proteolysis on storage,[4],highly susceptible to proteolysis
same,degradation of His6-spp24 by MC3T3-E1 cell extracts,"[5]; absence of added calcium, 0 to 24 hours",essentially no degradation was observed until 24 hr
same,time to essentially complete degradation of His6-spp24,[5],≤ 2 h
same,time to essentially complete degradation of His6-spp24,[5]; listed as His6-spp24,about 2 hours
same,effect on A549 cell proliferation,"[6]; agent alone, serum-free media, rhBMP-2 0-500 ng/ml, spp24 10-75 μg/ml",slight dose-dependent inhibition of proliferation
same,effect of spp24 on BMP-stimulated A549 proliferation,[6]; spp24 added to the BMP treatment,attenuation of the BMP affect at all doses
same,effect on BMP-2 induced bone formation,"BMP-2 [1]; ectopic bone forming assay (Sintuu, 2008)",strongly inhibits BMP-2 induced bone formation
same,subcutaneous tumor volume,A549 cells [7],12.6±21.6 mm3
same,animals with minimal new bone formation,A549 cells [8],three of ten
same,average radiographic score,"A549 cells [8]; score 0 normal to 3 obliteration of two cortices, cells alone 2.1",0.5±0.6
"noggin: an inhibitor of BMPs (protein, UniProt Q13253 28-232, looked up) Noggin: QHYLHIRPAPSDNLPLVDLIEHPDPIFDPKEKDLNETLLRSLLGGHYDPGFMATSPPEDRPGGGGGAAGGAEDLAELDQLLRQRPSGAMPSEIKGLEFSEGLAQGKKQRLSKKLRRKLQMWLWSQTFCPVLYAWNDLGSRFWPRYVKVGSCFSKRSCSVPEGMVCKPSKSVHLTVLRWRCQRRGGQRCGWIPIQYPIISECKCSC",effect on tumor growth,A549,reduce tumor growth
